# Measurements taken from IntAct's records for PubMed 17293598.
# B1: Complement factor H (Homo sapiens), P08603 (parent)
# chain: MRLLAKIICLMLWAICVAEDCNELPPRRNTEILTGSWSDQTYPEGTQAIYKCRPGYRSLGNVIMVCRKGEWVALNPLRKCQKRPCGHPGDTPFGTFTLTGGNVFEYGVKAVYTCNEGYQLLGEINYRECDTDGWTNDIPICEVVKCLPVTAPENGKIVSSAMEPDREYHFGQAVRFVCNSGYKIEGDEEMHCSDDGFWSKEKPKCVEISCKSPDVINGSPISQKIIYKENERFQYKCNMGYEYSERGDAVCTESGWRPLPSCEEKSCDNPYIPNGDYSPLRIKHRTGDEITYQCRNGFYPATRGNTAKCTSTGWIPAPRCTLKPCDYPDIKHGGLYHENMRRPYFPVAVGKYYSYYCDEHFETPSGSYWDHIHCTQDGWSPAVPCLRKCYFPYLENGYNQNYGRKFVQGKSIDVACHPGYALPKAQTTVTCMENGWSPTPRCIRVKTCSKSSIDIENGFISESQYTYALKEKAKYQCKLGYVTADGETSGSITCGKDGWSAQPTCIKSCDIPVFMNARTKNDFTWFKLNDTLDYECHDGYESNTGSTTGSIVCGYNGWSDLPICYERECELPKIDVHLVPDRKKDQYKVGEVLKFSCKPGFTIVGPNSVQCYHFGLSPDLPICKEQVQSCGPPPELLNGNVKEKTKEEYGHSEVVEYYCNPRFLMKGPNKIQCVDGEWTTLPVCIVEESTCGDIPELEHGWAQLSSPPYYYGDSVEFNCSESFTMIGHRSITCIHGVWTQLPQCVAIDKLKKCKSSNLIILEEHLKNKKEFDHNSNIRYRCRGKEGWIHTVCINGRWDPEVNCSMAQIQLCPPPPQIPNSHNMTTTLNYRDGEKVSVLCQENYLIQEGEEITCKDGRWQSIPLCVEKIPCSQPPQIEHGTINSSRSSQESYAHGTKLSYTCEGGFRISEENETTCYMGKWSSPPQCEGLPCKSPPEISHGVVAHMSDSYQYGEEVTYKCFEGFGIDGPAIAKCLGEKWSHPPSCIKTDCLSLPSFENAIPMGEKKDVYKAGEQVTYTCATYYKMDGASNVTCINSRWTGRPTCRDTSCVNPPTVQNAYIVSRQMSKYPSGERVRYQCRSPYEMFGDEEVMCLNGNWTEPPQCKDSTGKCGPPPPIDNGDITSFPLSVYAPASSVEYQCQNLYQLEGNKRITCRNGQWSEPPKCLHPCVISREIMENYNIALRWTAKQKLYSRTGESVEFVCKRGYRLSSRSHTLRTTCWDGKLEYPTCAKR
# partner: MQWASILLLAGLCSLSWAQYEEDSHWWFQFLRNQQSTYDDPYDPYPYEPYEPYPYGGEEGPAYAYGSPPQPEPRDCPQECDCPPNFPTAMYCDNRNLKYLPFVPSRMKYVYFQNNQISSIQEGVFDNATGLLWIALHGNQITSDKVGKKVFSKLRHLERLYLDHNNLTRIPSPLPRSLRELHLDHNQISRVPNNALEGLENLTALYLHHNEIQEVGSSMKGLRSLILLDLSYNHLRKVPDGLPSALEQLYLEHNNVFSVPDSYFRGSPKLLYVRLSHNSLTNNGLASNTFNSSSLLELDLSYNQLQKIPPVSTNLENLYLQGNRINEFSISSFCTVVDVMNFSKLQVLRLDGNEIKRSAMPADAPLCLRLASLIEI
# B2: Complement factor H (Homo sapiens), P08603 (parent)
# chain: B1 chain
# partner: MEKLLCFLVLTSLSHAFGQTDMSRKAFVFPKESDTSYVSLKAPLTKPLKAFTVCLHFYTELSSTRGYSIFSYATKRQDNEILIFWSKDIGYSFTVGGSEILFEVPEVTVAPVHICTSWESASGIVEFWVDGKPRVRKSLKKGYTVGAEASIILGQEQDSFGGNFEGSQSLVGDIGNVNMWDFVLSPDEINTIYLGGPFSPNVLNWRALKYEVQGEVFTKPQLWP
# Variants of: B1
# Settings: with fmod_bovin FMOD
row,Variant,effect of a mutation on the interaction
1,Y402H,decreasing interaction strength

# Variants of: B2
# Settings: with crp_human CRP
row,Variant,effect of a mutation on the interaction
1,Y402H,decreasing interaction strength
